T1: DLG3_3, Q92796
T1 sequence (Q92796 374-475, limits assumed, looked up): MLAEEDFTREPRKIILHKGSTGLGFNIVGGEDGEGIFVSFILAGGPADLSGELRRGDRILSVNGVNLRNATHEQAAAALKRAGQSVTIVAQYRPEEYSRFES

T2: GRIP1_4, Q9Y3R0
T2 sequence (Q9Y3R0 467-571, limits assumed, looked up): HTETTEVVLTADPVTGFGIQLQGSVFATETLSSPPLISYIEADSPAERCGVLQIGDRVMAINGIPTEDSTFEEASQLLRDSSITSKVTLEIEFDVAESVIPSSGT

T3: LIN7C, Q9NUP9
T3 sequence (Q9NUP9 88-185, limits assumed, looked up): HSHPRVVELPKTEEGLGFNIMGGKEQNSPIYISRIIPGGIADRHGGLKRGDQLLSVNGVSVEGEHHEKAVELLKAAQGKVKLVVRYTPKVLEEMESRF

T4: MPDZ_12, O75970
T4 sequence (O75970 1857-1958, limits assumed, looked up): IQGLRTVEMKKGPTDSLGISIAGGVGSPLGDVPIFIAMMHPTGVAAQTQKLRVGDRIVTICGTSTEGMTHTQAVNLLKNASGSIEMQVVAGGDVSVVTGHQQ

T5: PARD3B_1, Q8TEW8
T5 sequence (Q8TEW8 196-299, limits assumed, looked up): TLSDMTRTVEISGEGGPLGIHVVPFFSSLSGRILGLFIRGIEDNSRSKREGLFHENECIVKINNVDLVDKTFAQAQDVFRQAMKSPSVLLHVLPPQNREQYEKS

T6: RHPN1, Q8TCX5
T6 sequence (Q8TCX5 508-602, limits assumed, looked up): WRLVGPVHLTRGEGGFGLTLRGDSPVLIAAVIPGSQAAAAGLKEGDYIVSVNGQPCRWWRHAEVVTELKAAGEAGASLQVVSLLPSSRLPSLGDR

T7: SHANK1, Q9Y566
T7 sequence (Q9Y566 658-767, limits assumed, looked up): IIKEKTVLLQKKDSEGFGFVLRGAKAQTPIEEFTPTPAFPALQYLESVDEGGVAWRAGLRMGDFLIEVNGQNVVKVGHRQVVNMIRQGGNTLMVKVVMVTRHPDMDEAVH

T8: SIPA1L2, Q9P2F8
T8 sequence (Q9P2F8 945-1036, limits assumed, looked up): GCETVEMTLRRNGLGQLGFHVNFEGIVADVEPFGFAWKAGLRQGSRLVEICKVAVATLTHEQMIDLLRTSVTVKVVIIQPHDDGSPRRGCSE


Columns and labels:
Experiment in all cases: holdup assay
Set-up in all cases: key: below the threshold = too weak to quantify, mostly under pKd 3.1 to 4
Details in all cases: plain residues with an end cap or a label only (N-terminal biotin on a linker: ado-ado)
ARHGEF12, Q9NZN5-2 = target: ARHGEF12, Q9NZN5-2
Sequence of ARHGEF12, Q9NZN5-2 (Q9NZN5 other isoform, or with tags, fused parts or gaps): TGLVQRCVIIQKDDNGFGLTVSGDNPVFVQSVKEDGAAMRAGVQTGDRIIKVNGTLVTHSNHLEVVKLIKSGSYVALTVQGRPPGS

DLG1_2, Q12959 = target: DLG1_2, Q12959
Sequence of DLG1_2, Q12959 (Q12959 314-412): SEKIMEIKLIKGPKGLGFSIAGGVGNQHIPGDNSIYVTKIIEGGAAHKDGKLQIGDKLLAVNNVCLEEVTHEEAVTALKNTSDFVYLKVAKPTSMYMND

DLG3_3, Q92796 = target: T1, DLG3_3, Q92796
FRMPD2_1, Q68DX3 = target: FRMPD2_1, Q68DX3
Sequence of FRMPD2_1, Q68DX3 (Q68DX3 770-861): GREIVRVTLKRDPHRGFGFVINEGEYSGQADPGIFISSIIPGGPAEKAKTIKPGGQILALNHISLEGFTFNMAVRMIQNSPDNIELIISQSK

FRMPD3, Q5JV73 = target: FRMPD3, Q5JV73
Sequence of FRMPD3, Q5JV73 (Q5JV73 12-100): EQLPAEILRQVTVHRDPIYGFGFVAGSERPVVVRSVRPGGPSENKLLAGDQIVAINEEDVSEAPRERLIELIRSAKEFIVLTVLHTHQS

GORASP1, Q9BQQ3 = target: GORASP1, Q9BQQ3
Sequence of GORASP1, Q9BQQ3 (Q9BQQ3 1-208): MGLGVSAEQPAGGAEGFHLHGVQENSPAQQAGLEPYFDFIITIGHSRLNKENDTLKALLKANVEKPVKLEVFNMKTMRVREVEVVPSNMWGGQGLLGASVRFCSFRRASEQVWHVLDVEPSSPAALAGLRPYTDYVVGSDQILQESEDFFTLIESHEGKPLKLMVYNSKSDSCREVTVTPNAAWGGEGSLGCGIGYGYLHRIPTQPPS

GRID2IP_2, A4D2P6 = target: GRID2IP_2, A4D2P6
Sequence of GRID2IP_2, A4D2P6 (A4D2P6 272-370): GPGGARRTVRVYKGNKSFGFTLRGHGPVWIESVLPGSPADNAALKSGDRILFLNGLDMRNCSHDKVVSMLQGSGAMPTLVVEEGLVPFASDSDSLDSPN

GRIP1_4, Q9Y3R0 = target: T2, GRIP1_4, Q9Y3R0
GRIP2_4, Q9C0E4 = target: GRIP2_4, Q9C0E4
Sequence of GRIP2_4, Q9C0E4 (Q9C0E4 446-548): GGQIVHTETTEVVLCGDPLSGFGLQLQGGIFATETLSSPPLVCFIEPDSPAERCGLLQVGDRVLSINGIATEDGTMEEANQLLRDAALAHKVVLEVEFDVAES

HTRA2, O43464 = target: HTRA2, O43464
Sequence of HTRA2, O43464 (O43464 355-458): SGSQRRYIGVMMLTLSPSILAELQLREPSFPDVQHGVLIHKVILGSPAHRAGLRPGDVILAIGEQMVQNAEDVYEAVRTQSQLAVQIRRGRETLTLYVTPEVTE

Inadl_1, Q8NI35 = target: Inadl_1, Q8NI35
Sequence of Inadl_1, Q8NI35 (Q8NI35 113-229): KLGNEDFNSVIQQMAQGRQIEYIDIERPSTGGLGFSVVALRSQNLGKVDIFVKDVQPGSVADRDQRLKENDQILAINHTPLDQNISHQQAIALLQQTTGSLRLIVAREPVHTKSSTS

Inadl_2, Q8NI35 = target: Inadl_2, Q8NI35
Sequence of Inadl_2, Q8NI35 (Q8NI35 238-335): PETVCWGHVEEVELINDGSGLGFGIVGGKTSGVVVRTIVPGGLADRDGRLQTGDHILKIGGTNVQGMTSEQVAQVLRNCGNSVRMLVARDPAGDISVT

Inadl_6, Q8NI35 = target: Inadl_6, Q8NI35
Sequence of Inadl_6, Q8NI35 (Q8NI35 1058-1167): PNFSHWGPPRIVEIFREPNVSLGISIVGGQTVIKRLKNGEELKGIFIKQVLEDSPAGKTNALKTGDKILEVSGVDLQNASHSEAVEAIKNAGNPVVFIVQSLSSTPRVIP

LDB3, O75112 = target: LDB3, O75112
Sequence of LDB3, O75112 (O75112 1-94): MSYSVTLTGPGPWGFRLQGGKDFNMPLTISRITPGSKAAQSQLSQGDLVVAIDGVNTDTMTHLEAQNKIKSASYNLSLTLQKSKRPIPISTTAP

LIN7C, Q9NUP9 = target: T3, LIN7C, Q9NUP9
LNX1_3, Q8TBB1 = target: LNX1_3, Q8TBB1
Sequence of LNX1_3, Q8TBB1 (Q8TBB1 500-596): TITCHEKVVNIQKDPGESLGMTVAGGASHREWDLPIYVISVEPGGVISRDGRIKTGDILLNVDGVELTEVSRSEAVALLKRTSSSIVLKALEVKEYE

MAGI2_2, Q86UL8 = target: MAGI2_2, Q86UL8
Sequence of MAGI2_2, Q86UL8 (Q86UL8 410-522): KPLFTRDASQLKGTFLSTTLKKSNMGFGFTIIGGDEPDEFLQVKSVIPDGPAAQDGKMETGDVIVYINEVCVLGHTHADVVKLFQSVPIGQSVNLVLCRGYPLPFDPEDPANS

MAGI2_6, Q86UL8 = target: MAGI2_6, Q86UL8
Sequence of MAGI2_6, Q86UL8 (Q86UL8 1141-1229): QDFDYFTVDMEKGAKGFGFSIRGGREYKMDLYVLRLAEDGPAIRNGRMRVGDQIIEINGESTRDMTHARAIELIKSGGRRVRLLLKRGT

MPDZ_12, O75970 = target: T4, MPDZ_12, O75970
NHERF2_2, Q15599 = target: NHERF2_2, Q15599
Sequence of NHERF2_2, Q15599 (Q15599 142-238): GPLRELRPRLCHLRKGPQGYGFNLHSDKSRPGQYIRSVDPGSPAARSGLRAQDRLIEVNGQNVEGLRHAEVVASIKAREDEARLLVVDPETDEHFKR

NHERF4_1, Q86UT5-2 = target: NHERF4_1, Q86UT5-2
Sequence of NHERF4_1, Q86UT5-2 (Q86UT5 other isoform, or with tags, fused parts or gaps): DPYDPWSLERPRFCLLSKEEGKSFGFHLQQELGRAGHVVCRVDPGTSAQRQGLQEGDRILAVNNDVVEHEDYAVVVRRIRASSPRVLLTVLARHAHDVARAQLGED

NHERF4_4, Q86UT5 = target: NHERF4_4, Q86UT5
Sequence of NHERF4_4, Q86UT5 (Q86UT5 464-550): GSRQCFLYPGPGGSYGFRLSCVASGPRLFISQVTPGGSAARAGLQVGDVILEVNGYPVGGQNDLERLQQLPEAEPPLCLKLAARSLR

PARD3B_1, Q8TEW8 = target: T5, PARD3B_1, Q8TEW8
PTPN3, P26045 = target: PTPN3, P26045
Sequence of PTPN3, P26045 (P26045 505-587): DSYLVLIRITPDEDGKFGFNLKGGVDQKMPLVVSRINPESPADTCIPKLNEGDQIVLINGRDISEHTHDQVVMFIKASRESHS

RHPN1, Q8TCX5 = target: T6, RHPN1, Q8TCX5
SCRIB_3, Q14160 = target: SCRIB_3, Q14160
Sequence of SCRIB_3, Q14160 (Q14160 999-1103): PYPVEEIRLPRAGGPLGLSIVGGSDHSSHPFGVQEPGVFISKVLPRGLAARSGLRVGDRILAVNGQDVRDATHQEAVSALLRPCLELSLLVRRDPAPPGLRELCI

SHANK1, Q9Y566 = target: T7, SHANK1, Q9Y566
SIPA1L2, Q9P2F8 = target: T8, SIPA1L2, Q9P2F8
SNX27, Q96L92 = target: SNX27, Q96L92

pKd (ARHGEF12, Q9NZN5-2)	pKd (DLG1_2, Q12959)	pKd (DLG3_3, Q92796)	pKd (FRMPD2_1, Q68DX3)	pKd (FRMPD3, Q5JV73)	pKd (GORASP1, Q9BQQ3)	pKd (GRID2IP_2, A4D2P6)	pKd (GRIP1_4, Q9Y3R0)	pKd (GRIP2_4, Q9C0E4)	pKd (HTRA2, O43464)	pKd (Inadl_1, Q8NI35)	pKd (Inadl_2, Q8NI35)	pKd (Inadl_6, Q8NI35)	pKd (LDB3, O75112)	pKd (LIN7C, Q9NUP9)	pKd (LNX1_3, Q8TBB1)	pKd (MAGI2_2, Q86UL8)	pKd (MAGI2_6, Q86UL8)	pKd (MPDZ_12, O75970)	pKd (NHERF2_2, Q15599)	Binder	also measured
4.18	4.01	below the threshold	below the threshold	below the threshold	below the threshold	4.16	below the threshold	below the threshold	below the threshold	below the threshold	below the threshold	below the threshold	below the threshold	below the threshold	below the threshold	3.58	below the threshold	below the threshold	below the threshold	LGRSTPQSEV [DGKH, Q86XP1]	pKd (NHERF4_1, Q86UT5-2): below the threshold; pKd (NHERF4_4, Q86UT5): below the threshold; pKd (PARD3B_1, Q8TEW8): below the threshold; pKd (PTPN3, P26045): 4.12; pKd (RHPN1, Q8TCX5): 4.49; pKd (SCRIB_3, Q14160): 3.8; pKd (SHANK1, Q9Y566): below the threshold; pKd (SIPA1L2, Q9P2F8): below the threshold; pKd (SNX27, Q96L92): 3.89
4.12	5.25	4.16	3.71	below the threshold	4.19	below the threshold	below the threshold	below the threshold	below the threshold	below the threshold	below the threshold	below the threshold	below the threshold	below the threshold	below the threshold	4.6	below the threshold	below the threshold	below the threshold	PPYRHRNTVV [ERBB4, Q15303]	pKd (NHERF4_1, Q86UT5-2): below the threshold; pKd (NHERF4_4, Q86UT5): below the threshold; pKd (PARD3B_1, Q8TEW8): below the threshold; pKd (PTPN3, P26045): 3.89; pKd (RHPN1, Q8TCX5): 3.6; pKd (SCRIB_3, Q14160): 3.58; pKd (SHANK1, Q9Y566): below the threshold; pKd (SIPA1L2, Q9P2F8): below the threshold; pKd (SNX27, Q96L92): 4.42

Second part, the binder before the results:

Binder	pKd (ARHGEF12, Q9NZN5-2)	pKd (DLG1_2, Q12959)	pKd (DLG3_3, Q92796)	pKd (FRMPD2_1, Q68DX3)	pKd (FRMPD3, Q5JV73)	pKd (GORASP1, Q9BQQ3)	pKd (GRID2IP_2, A4D2P6)	pKd (GRIP1_4, Q9Y3R0)	pKd (GRIP2_4, Q9C0E4)	pKd (HTRA2, O43464)	pKd (Inadl_1, Q8NI35)	pKd (Inadl_2, Q8NI35)	pKd (Inadl_6, Q8NI35)	pKd (LDB3, O75112)	pKd (LIN7C, Q9NUP9)	pKd (LNX1_3, Q8TBB1)	pKd (MAGI2_2, Q86UL8)	pKd (MAGI2_6, Q86UL8)	pKd (MPDZ_12, O75970)	pKd (NHERF2_2, Q15599)	also measured
RRISSLESEV [GRIN2C, Q14957]	4.31	5.51	4.11	below the threshold	below the threshold	below the threshold	3.54	below the threshold	below the threshold	below the threshold	below the threshold	below the threshold	below the threshold	below the threshold	4.29	below the threshold	4.58	4.31	below the threshold	below the threshold	pKd (NHERF4_1, Q86UT5-2): 3.71; pKd (NHERF4_4, Q86UT5): below the threshold; pKd (PARD3B_1, Q8TEW8): below the threshold; pKd (PTPN3, P26045): 4.98; pKd (RHPN1, Q8TCX5): 4.66; pKd (SCRIB_3, Q14160): 4.55; pKd (SHANK1, Q9Y566): below the threshold; pKd (SIPA1L2, Q9P2F8): below the threshold; pKd (SNX27, Q96L92): 4.97
CLREWCDAFL [BANF1, O75531]	below the threshold	below the threshold	below the threshold	below the threshold	3.66	3.82	below the threshold	below the threshold	below the threshold	3.91	below the threshold	below the threshold	4.32	below the threshold	3.66	below the threshold	below the threshold	4.36	3.67	4.48	pKd (NHERF4_1, Q86UT5-2): 4.13; pKd (NHERF4_4, Q86UT5): 3.6; pKd (PARD3B_1, Q8TEW8): 5.18; pKd (PTPN3, P26045): 4.47; pKd (RHPN1, Q8TCX5): below the threshold; pKd (SCRIB_3, Q14160): 4.03; pKd (SHANK1, Q9Y566): 4.14; pKd (SIPA1L2, Q9P2F8): below the threshold; pKd (SNX27, Q96L92): 4.58
GSGAVEMESV [AQP6, Q13520]	below the threshold	below the threshold	below the threshold	below the threshold	below the threshold	below the threshold	below the threshold	below the threshold	below the threshold	below the threshold	below the threshold	below the threshold	below the threshold	below the threshold	below the threshold	below the threshold	below the threshold	3.51	below the threshold	below the threshold	pKd (NHERF4_1, Q86UT5-2): below the threshold; pKd (NHERF4_4, Q86UT5): below the threshold; pKd (PARD3B_1, Q8TEW8): below the threshold; pKd (PTPN3, P26045): below the threshold; pKd (RHPN1, Q8TCX5): below the threshold; pKd (SCRIB_3, Q14160): below the threshold; pKd (SHANK1, Q9Y566): below the threshold; pKd (SIPA1L2, Q9P2F8): below the threshold; pKd (SNX27, Q96L92): 3.7
